The values that follow come from patent publication US20210386836.

For one data set, the target named is T1, C1s, P09871.
T1 chain: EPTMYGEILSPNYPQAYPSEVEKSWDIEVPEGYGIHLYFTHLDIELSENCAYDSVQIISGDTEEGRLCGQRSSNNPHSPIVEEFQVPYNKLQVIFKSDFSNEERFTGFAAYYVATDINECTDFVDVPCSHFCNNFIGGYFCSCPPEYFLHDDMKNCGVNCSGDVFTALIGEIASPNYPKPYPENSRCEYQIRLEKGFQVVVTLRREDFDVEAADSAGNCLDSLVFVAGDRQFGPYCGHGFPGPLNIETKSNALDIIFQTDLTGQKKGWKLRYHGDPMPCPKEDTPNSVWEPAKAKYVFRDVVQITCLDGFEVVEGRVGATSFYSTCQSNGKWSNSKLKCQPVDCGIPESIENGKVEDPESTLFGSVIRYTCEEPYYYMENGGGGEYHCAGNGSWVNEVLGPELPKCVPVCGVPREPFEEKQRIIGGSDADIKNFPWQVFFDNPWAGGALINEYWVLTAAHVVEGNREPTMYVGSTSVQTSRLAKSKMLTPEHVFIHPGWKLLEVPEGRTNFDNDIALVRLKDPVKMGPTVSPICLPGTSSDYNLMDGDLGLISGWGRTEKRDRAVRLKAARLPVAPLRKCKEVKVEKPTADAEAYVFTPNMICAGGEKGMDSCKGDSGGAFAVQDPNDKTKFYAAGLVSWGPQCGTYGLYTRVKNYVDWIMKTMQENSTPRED

For the next data set, the target named is T2, C2, P06681.
T2 chain: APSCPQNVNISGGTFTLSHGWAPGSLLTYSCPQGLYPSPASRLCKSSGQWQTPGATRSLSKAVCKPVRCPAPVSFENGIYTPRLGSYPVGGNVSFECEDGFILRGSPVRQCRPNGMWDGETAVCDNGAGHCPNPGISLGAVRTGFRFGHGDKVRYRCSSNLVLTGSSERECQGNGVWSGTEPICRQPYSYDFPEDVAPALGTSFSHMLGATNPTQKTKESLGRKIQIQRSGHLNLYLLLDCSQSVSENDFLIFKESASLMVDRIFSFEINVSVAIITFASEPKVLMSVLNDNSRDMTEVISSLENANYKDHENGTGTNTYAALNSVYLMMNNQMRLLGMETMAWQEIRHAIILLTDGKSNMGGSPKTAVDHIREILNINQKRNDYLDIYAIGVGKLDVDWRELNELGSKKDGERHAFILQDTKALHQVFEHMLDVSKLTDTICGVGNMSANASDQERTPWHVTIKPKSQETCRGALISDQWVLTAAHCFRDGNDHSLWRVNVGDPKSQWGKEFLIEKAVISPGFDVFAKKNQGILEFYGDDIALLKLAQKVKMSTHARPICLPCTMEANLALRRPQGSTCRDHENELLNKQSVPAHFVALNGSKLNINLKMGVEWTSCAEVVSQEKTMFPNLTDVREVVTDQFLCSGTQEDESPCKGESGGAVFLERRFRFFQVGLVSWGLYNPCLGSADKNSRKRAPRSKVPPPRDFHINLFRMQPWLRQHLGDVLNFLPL

For a further data set, the target named is T3, C2a, P06681.
T3 chain: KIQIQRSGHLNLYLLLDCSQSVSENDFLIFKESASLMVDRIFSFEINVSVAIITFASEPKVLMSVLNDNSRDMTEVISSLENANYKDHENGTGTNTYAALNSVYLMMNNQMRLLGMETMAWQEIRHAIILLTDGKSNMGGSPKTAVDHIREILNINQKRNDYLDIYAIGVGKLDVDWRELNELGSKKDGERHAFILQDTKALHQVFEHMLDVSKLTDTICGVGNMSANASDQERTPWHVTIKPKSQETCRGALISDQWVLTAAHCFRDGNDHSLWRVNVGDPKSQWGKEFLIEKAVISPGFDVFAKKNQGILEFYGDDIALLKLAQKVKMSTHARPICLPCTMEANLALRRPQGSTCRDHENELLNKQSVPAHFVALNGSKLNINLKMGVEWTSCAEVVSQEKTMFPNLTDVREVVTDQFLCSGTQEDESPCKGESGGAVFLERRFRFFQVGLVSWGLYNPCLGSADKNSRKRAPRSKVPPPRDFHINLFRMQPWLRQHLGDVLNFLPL

In another data set the target is T4, β-casein.
T4 sequence (P02666 16-224, species assumed, looked up): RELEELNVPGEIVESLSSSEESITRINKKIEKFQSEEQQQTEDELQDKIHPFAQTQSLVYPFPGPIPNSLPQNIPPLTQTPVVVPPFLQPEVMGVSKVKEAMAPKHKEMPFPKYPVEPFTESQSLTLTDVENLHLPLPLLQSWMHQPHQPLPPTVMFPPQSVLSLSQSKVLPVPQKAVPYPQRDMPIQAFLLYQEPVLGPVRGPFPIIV

Chain of Factor B, P00751 (P00751 26-764): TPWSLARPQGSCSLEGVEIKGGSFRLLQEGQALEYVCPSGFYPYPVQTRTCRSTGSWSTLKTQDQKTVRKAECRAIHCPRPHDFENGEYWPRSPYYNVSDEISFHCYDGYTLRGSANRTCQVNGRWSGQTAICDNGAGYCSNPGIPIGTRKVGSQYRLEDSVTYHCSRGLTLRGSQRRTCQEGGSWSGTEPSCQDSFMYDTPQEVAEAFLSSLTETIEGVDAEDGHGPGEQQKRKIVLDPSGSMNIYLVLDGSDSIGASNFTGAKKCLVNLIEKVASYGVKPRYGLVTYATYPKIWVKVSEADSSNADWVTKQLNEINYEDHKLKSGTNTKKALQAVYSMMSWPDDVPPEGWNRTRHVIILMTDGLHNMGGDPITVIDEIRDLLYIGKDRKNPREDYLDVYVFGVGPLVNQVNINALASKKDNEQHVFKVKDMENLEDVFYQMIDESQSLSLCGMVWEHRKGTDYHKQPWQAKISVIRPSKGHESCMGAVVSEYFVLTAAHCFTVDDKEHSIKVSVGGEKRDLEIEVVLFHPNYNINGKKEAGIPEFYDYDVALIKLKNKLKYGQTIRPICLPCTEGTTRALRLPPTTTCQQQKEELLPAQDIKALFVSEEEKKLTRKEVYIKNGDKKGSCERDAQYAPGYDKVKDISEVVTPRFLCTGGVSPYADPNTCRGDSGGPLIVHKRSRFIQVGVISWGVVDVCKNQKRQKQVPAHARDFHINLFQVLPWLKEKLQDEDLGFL

B1: PrtV(Pro-B) (protein)
chain: DTVNGSESVKTEATQASGSSVQDNATAKTTVTTNSNSSNNVSNVQTDTVKEAATSNVDSVASQNQATTAQQAKTTADTADQTVPPTTYKDHVKGNVQTAWDNGYKGQGMVVAVIDSGADTNHKDFSKAPESPAISKEDADKKISELGYGKYASEKFPFVYNYASRDNNWVKDDGPDASEHGQHVAGIIGADGQPNGNERYAVGVAPETQLMMMRVFNDQFADENTDDIAQAIYDAVKLGANVIQMSLGQGVAAANLNDVEQKAVEYATQHGVFVSISASNNGNSASVTGEEVPYKPGGADGNFEPFSSSTVANPGASRNAMTVAAENSVVGAGDDMADFSSWGPLQDFTLKPDVSAPGVSVTSTGNDNRYNTMSGTSMAGPFNAGVAALVMQRLKATTNLNGADLVQATKALIMNTAKPMTQQGYDTPVSPRRQGAGEIDAGAATESPVYVVAADGTSSVSLRKVGDSTQFALTFKNLSDKDQTYTFDDFGGGLTEVRDADTGTFHDVYLAGAHVYGNKTVTVKAGQSATYNFTLSLTGLKENQLVEGWLRFVGNDGQNQLVVPYLAYYGDMTSEDVFDKAANQEGTVYGGNYFVNEDNYPRGVADEDSLKALVNLEGNYNWQQVAKLYQDGKVAFSPNADGKSDLLKPYAFVKQNLKDLKVEVLDKSGKVVRVVADEQGLDKSYYESGVNKDVTLSVSMRNNPNTLAWDGKVYDDKAGEMVNAADGEYTYRYVATLYNDGVNKVQTADYPVVIDTTAPVLSNVKYDAATHTLSFDYKDTGSGFTDYSYAVVKVNDKTFGYKLNDGKNSKFLDAAKTSGTFKAVLGSDTLAALTAAKNALSVAVSDVADNTSTVTLLVNGNNDATTKVSVWNATNGLELDQSSPDYQAATSTYNLRGNATSDFYYNGALVQVDNSGNFVVPVSTSDTAVVFTSDAAGKNVVYKLNTATPKAVFAWQVNNTVKENFGIVLDTVVSNNKDDVVVQAAVTKGDNVEAYARDYFTGAVYKADVKDGLATFHVKVTNNSGRTVLLGWTEVVGPTFNDVQRTSANGVYLGVDTDTENPTPAPAFTSADQLGTNVVQEKADSATIGNPGDLPGHSLKDLTTRADANPDIHFDYLKDNDYNWVGAQAVKDGVYNPSTQVFTLTGKVDPNVKSLVVLGDSYNEDDPVNKVNLNSDGTFSFQFHTAPTSQRPVAYIYTKDDGSTTRGTMELILDTVLPTLSLNNVANLQLDSNGDYQVYTNNKDFSVSGEATDNLDGYRFFFNGDNDYREFHNSGVNFVAEAHQDGSTVTNPYPAYKFSKTFNLADATGETTHVYTLSVVDLTGNTVTRKFYVHY
In the case of B1, the “proteolytic activity (SDS-PAGE)” value is reported as “None of the complement proteins tested show evidence of breakdown” with C1s, P09871; “None of the complement proteins tested show evidence of breakdown” with C2, P06681; “None of the complement proteins tested show evidence of breakdown” in the data set with C2a, P06681; “None of the complement proteins tested show evidence of breakdown” with C3, P01024; “None of the complement proteins tested show evidence of breakdown” with C5, P01031; “None of the complement proteins tested show evidence of breakdown” with Factor B, P00751. For the same protein, the “protein cleavage assay (SDS-PAGE)” value in the data set with ENA-78 and with IL-8 was “has activities against” in each case. Besides, the “digestion (SDS-PAGE)” value with cytochrome C, with fibrinogen, in the data set with haemoglobin and with lysozyme was “did not digest” each time. Also, the “casein activity assay (SDS-PAGE)” value with α-casein, with β-casein and with κ-casein was “cleaving only α-casein in a limited manner” throughout.
